Source: US20250357519A1, “APPLICATIONS OF O2-INSENSITIVE FORMATE DEHYDROGENASE” (UNIVERSITY OF MARYLAND, BALTIMORE, priority 2022, published 2025)

Assays:
[1] = Phenazine ethosulfate (PES)/dichlorophenolindophenol (DCPIP) assay of formate oxidation by DvH-FDH2; assay type: biochemical, Desulfovibrio vulgaris Hildenborough; settings: PES/DCPIP-based
Source text: FIG. 38. Experimental workflow for aerobic PES/DCPIP assay. Prepare cuvette (1), fill with reaction mix (2), add stirrer (3), initiate kinetics by the addition of DvH-FDH2 while the contents of the cuvette are being mixed (4), and continue data collection until completion (5). Blue arrows shown at the bottom in steps 4 and 5 denote stirring.
FIG. 39. Experimental workflow for anaerobic PES/DCPIP assay. Setup cuvette (1,2), add reaction mix (3), gas with argon (4), start the reaction by injecting DvH-FDH2 (5), and collect data until the reaction goes to completion (6). Blue arrows shown at the bottom in steps 4-6 represent stirring.
In this dye-linked assay, PES (Em,7=+65 mV) serves as the primary electron acceptor. Following its reduction by FDH2, PES nonenzymatically transfers electrons to a second dye, DCPIP, facilitating spectrophotometric detection.^91 Workflows are described in FIGS. 38 and 39. PES was chosen over PMS because of its long-term stability.^120 Furthermore, necessary precautions were taken in handling and preparing the reagents, including protecting the reagents from light.^187 DvH-FDH2 was assayed in 1 mM PES (Sigma-Aldrich P4544-1G)/93 μM DCPIP (98% pure; Acros 152870100) in 50 mM Tris pH 8.0. […] Assays were performed using a UV-2600i spectrophotometer (Shimadzu Life Sciences) equipped with T2 Peltier/stirrer accessory (Quantum) and monitored at 600 nm. […]

[2] = Oxygen consumption (Clark-type O2 electrode oximetry); assay type: biochemical, Desulfovibrio vulgaris Hildenborough
[3] = H2O2 production, Amplex Red (AR) method; assay type: biochemical, Desulfovibrio vulgaris Hildenborough; settings: aerobic DvH-FDH2 catalysis, AR assay
[4] = H2O2 production, coumarin boronic acid (CBA) assay; assay type: biochemical, Desulfovibrio vulgaris Hildenborough; settings: aerobic catalysis, formate between 1 and 10 Km
Procedure: Coumarin Boronic Acid (CBA) Assay. 10 mg of coumarin boronic acid (CBA) Cayman Chemicals 14051) was dissolved in 3.33 mL of DMSO. 101 μL of the CBA stock and 1.6 μL 0.5MDTPA were added to 3.9 mL 50 mM sodium phosphate pH 7.4 to produce a 2× working solution. The remaining steps essential identical to those used in the AR assay except that the plate was shaken at 400 rpm in an incubator (23° C.) for 15 min prior to CBA addition. Fluorescence detection was initiated by addition of 50 μL of the CBA 2× working solution, and the plate was scanned in fluorescence mode (excitation 332 nm and emission 470 nm). This method was also used in the context of redox bifurcation to quantify H2O2 production by DvH-FDH2 in the presence of 30 μM cytochrome c. Independently, the latter was incubated with H2O2 for the same duration (in the absence of DvH-FDH2) to assess the extent of peroxidase activity. Cytochrome c concentration was estimated as follows: oxidized ε410=106.1 mM^−1 cm^−1 and reduced ε550=29.5 mM^−1 cm^−1.
The following controls were common to both CBA and AR assays. (1) Heat-denatured DvH-FDH2, (2) addition of catalase (100 U/mL), (3) addition of SOD (10 U/mL), (4) FDH2 omitted, (5) fluorogenic substrate excluded, (6) formate excluded, and (7) buffer only.

equine cytochrome c = test: Reduction of equine cytochrome c by DvH-FDH2; assay type: biochemical

B1: DvH-FDH2 (protein)
chain 1: MRMPRRTFIKLASASAGALAFAGLGQSLAPTVARAAELKIAKAKVTPSVCCFCAVGCGLLVYTDTQTGRSINIEGDPDHPTNEGTLCPKGASIWQTTERSKRVTKVLYRAPGAAAWEEKSWDWALPRIARKIKETRDATFELTNDKGQTVNRTRGIASVGSAAVDNEEGWLMQAMMRALGLVYIESHARIUHSSTVGALAESYGRGAMTNHWIDLKNSDVILIMGSNAAENHPISFKWVTRAQERGATLIHVDPRFTRTSAKADIHAHIRSGTDIAFFGGLIRYIMENDLFFRQYVVDYTNASYIVGADYGFADGLFTGFDAEKGTYNTKKWAFAADENGMTLKDPTLNDPRCVFQLMKAHYARYDRKTVSDVTGISEEQLATLWSTFASTGKPDRAGTILYAMGQCQHTVGVQNIRALSMIQLLLGNIGIAGGGVNALRGESNVQGTTDISLLCDNLSGYLPTPKASWATFDDYVKGTTPVDKDPKSANWWSNRGKYLASYMKSVYPTASHQDGYLWHPKVDDGKITDYSWLQIFERMSKGGFKGAFVWGQNPCAGGANAGKNRKAMETLDWMVVVNLFENESSLFWKGPGVDPAKVKTEVFFLPACMSVEKGGSIANSGRWLQWREPGPKPMGDSRSDGDIVLDLYDEIRKLYREEKGAFPEPVLALDTDYRTDGKYDHHKVAKTLNGKFLTDVTIGDKTYKAGQQVPGFAMLQADGSTTSGCWIFTGCYTDAGNMMARRDRTQTPEQAAIGLFPNWSYAWPANRRILYNRAAVDMTGKPFDPKRAVIAWNGEKWVGDVPDGGWKPGEKLPFIMIREGRGQLFGPGRVDGPFPEHYEPFESPLESHPFSKQRVNPTALAFSHEPKAVRDKRYPFICTTYRVTEQWQSGTMTRNTGWLKEMQPEGFCEISRELAKELGIANGDAVVLESLRGKVQVVAIVTPRLKPFKVMGEVMHEVGIPWQFGWGQHVGKGDSANLLSPSVGDPNTGIPETKVFMVNLRKA
chain 2: MRPLGSLPQGMRRVSRRHIREAYMNGKTFFIDQTRCTACRGCQAACKQWKKFGSIETRNTGSYQNPPDLGPSTFKLVRFNEVEVDGKLKWLFFPEQCRHCLEPPCKMVADALIPGAIVQDAETGAVLYTEKTKGLDYMEVRSACPYDIPRQDPATGLLTKCNMCIDRVQNGMLPACVKTCPTGTMHFGDRADMLELAQKRLGEVKKRSPAALLADSDLVRVLYLCELAPANYHSHMVAEADTSRIGPFSRRALLRLRPFA
modifications: non-natural residues; left off: small tags and cut ends
[1]
  kcat/Km for formate oxidation, fold higher than aerotolerant Mo-Cys-FDH from Rhodobacter capsulatus (NAD^+): ~500 fold
[2]; oximetry, catalase added after equilibrium
  electron flux towards hydrogen peroxide generation (u/v value): ~80%
[2]; oximetry, catalase added after equilibrium, likely an underestimate
  fraction of electrons from formate ending up in H2O2 (x/y value): roughly one quarter
[2]; presence vs absence of catalase
  O2 uptake lower in presence of catalase (initial velocities): 50%
[3]
  H2O2 produced per mole of formate oxidized: roughly 0.75 mol
[4]
  H2O2 production: 64±6%
Equine cytochrome c; anaerobic conditions
  native equine cytochrome c reduction: stoichiometric reduction
Equine cytochrome c; in air, 30 μM cytochrome c, 10 μM formate
  native equine cytochrome c reduced: ~80%
